Common to all, as to format: cell-based, human
Data set [1] deals with basophils in whole blood from HDM allergic donors. Briefly: Basophil Activation Test (BAT). The settings on record: blood from HDM allergic individuals (n=14). The gist of the method: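 Basophil activation was read by flow cytometry as increased surface activation markers. The stimulus was a 1 h exposure of blood from 14 HDM-allergic donors to test proteins or major mite allergens at graded concentrations (e.g. 1–1000 ng/ml).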

Data set [2] relates to T cell lines obtained from HDM allergic individuals and non-allergics. Description: In vitro T cell proliferation test in T cell lines (Example 3). To be noted: 0.5 or 2 ug/ml, 72 h; for % responders of in-vitro T cell proliferation test, Allergic: T cell lines from HDM allergic individuals (n=30); for % responders of in-vitro T cell proliferation test, Non-allergics: T cell lines from non-allergics (n=8). Put shortly: (§1)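 Freshly isolated PBMC (5×10^6/ml) from mite-allergic patients or non-allergics cultured 5 days with test protein up to 10 ug/ml; IFN-gamma, IL-9, IL-10, IL-17, IL-31 in supernatants by multiplex immunoassay. T cell lines, raised 3 weeks on HDM extract, tested at 0.5 or 2 ug/ml protein in 72 h proliferation assay.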

Data set [3] has as its system PBMC cells obtained from mite allergic patients and non-allergics. Description: Ex vivo stimulation of PBMC: cytokine production (IFN-gamma, IL-9, IL-10, IL-17, IL-31). Put shortly: as §1

B1: A020: house dust mite protein; SEQ ID NO: 15 (Der f), 16 (Der p); Blo t SEQ ID NO: 316 printed as A0019 (protein)
chain: MSKPIFYYHPFSGPCRTVSTVAKILNVDMEMKKLDLLTKEHLNPEFLKVNPFHKVPTFVDSDGFVVDESRVIAMYLVESRKPDSFLYPKNDLKKRIQIDRWLHYDINLSTTISAPMFCVFRGHQVQDYQVEQGKETLKTLDGVMQSFEGKFLTGADQFTLADIAMYFSLNTMEVYPKYFKFDDYPNLKSWYHRVAEALKQYDTEGTIPKAIETMKQFIQQRAAEAEKH
As to B1, in data set [1] (1 ng/ml), the “# of individuals of 14 with positive BAT test” value is on record as 0. For the same molecule, in data set [1] (10 ng/ml), the “# of individuals of 14 with positive BAT test” value is 1. For the same molecule, in data set [1] (100 ng/ml), the “# of individuals of 14 with positive BAT test” value was 1. The “# of individuals of 14 with positive BAT test” value in data set [1] (1000 ng/ml) is listed as 1. Further, in data set [2], the “% responders of in-vitro T cell proliferation test, Allergic” value was determined as 18% and the “% responders of in-vitro T cell proliferation test, Non-allergics” value (from here on “% responders … Non-allergics”) worked out at 25%. For the same molecule, in data set [3], the “% HDM allergic individuals with cytokine production in ex-vivo T cell assay IL-5” value is recorded as 6%, the “% HDM allergic individuals with cytokine production in ex-vivo T cell assay IL-9” value is recorded as 0%, the “% HDM allergic individuals with cytokine production in ex-vivo T cell assay IL-10” value was 25% and the “% HDM allergic individuals with cytokine production in ex-vivo T cell assay IL-13” value was 6%. Besides, in data set [3], the “% HDM allergic individuals with cytokine production in ex-vivo T cell assay IL-17” value is recorded as 6%, the “% HDM allergic individuals with cytokine production in ex-vivo T cell assay IL-31” value was found to be 0%, the “% HDM allergic individuals with cytokine production in ex-vivo T cell assay INF-g” value was determined as 0% and the “% non-allergic individuals with cytokine production in ex-vivo T cell assay IL-5” value is 0%. Further, in data set [3], the “% non-allergic individuals with cytokine production in ex-vivo T cell assay IL-9” value worked out at 0%, the “% non-allergic individuals with cytokine production in ex-vivo T cell assay IL-10” value came to 0%, the “% non-allergic individuals with cytokine production in ex-vivo T cell assay IL-13” value came out at 0% and the “% non-allergic individuals with cytokine production in ex-vivo T cell assay IL-17” value came to 0%. In data set [3], the “% non-allergic individuals with cytokine production in ex-vivo T cell assay IL-31” value is on record as 0% and the “% non-allergic individuals with cytokine production in ex-vivo T cell assay INF-g” value was 17%.

B2: A024: house dust mite protein; SEQ ID NO: 11 (Der f), 12 (Der p), 318 (Blo t) (protein)
chain: MSISAHGGGLVNGIAGMENKFTVFTSGKPVSGLTVAFEGPTKPEINFNSTKDGSVDVGYIPKAGGQYKIHIKYEGKEIVGSPFKCNISGDESTHRKLTEKVKVGGPNISTGKVNQDNQLTIDCKEAGITGGISFAMEGPAKVEVSFRNNNDGTITVIYKPPTPGDYKLHLKFNDIHLPGSPYPIVVSA
Turning to B2, the “# of individuals of 14 with positive BAT test” value in data set [1] (1 ng/ml) is 2. Moreover, in data set [1] (10 ng/ml), the “# of individuals of 14 with positive BAT test” value is on record as 2. The “# of individuals of 14 with positive BAT test” value in data set [1] (100 ng/ml) worked out at 3. Further, in data set [1] (1000 ng/ml), the “# of individuals of 14 with positive BAT test” value is reported as 3. Moreover, in data set [2], the “% responders of in-vitro T cell proliferation test, Allergic” value is given as 21% and the “% responders … Non-allergics” value was 0%. In addition, in data set [3], the “% HDM allergic individuals with cytokine production in ex-vivo T cell assay IL-5” value was determined as 13%, the “% HDM allergic individuals with cytokine production in ex-vivo T cell assay IL-9” value came out at 6%, the “% HDM allergic individuals with cytokine production in ex-vivo T cell assay IL-10” value was 25% and the “% HDM allergic individuals with cytokine production in ex-vivo T cell assay IL-13” value turned out to be 6%. Moreover, in data set [3], the “% HDM allergic individuals with cytokine production in ex-vivo T cell assay IL-17” value is 6%, the “% HDM allergic individuals with cytokine production in ex-vivo T cell assay IL-31” value was 0%, the “% HDM allergic individuals with cytokine production in ex-vivo T cell assay INF-g” value worked out at 0% and the “% non-allergic individuals with cytokine production in ex-vivo T cell assay IL-5” value was 0%. Besides, in data set [3], the “% non-allergic individuals with cytokine production in ex-vivo T cell assay IL-9” value worked out at 0%, the “% non-allergic individuals with cytokine production in ex-vivo T cell assay IL-10” value is 17%, the “% non-allergic individuals with cytokine production in ex-vivo T cell assay IL-13” value was found to be 0% and the “% non-allergic individuals with cytokine production in ex-vivo T cell assay IL-17” value worked out at 0%. Further, in data set [3], the “% non-allergic individuals with cytokine production in ex-vivo T cell assay IL-31” value turned out to be 0% and the “% non-allergic individuals with cytokine production in ex-vivo T cell assay INF-g” value was found to be 0%.

B3: A023: house dust mite protein; SEQ ID NO: 23 (Der f), 24 (Der p) (protein)
chain: DPVQQRPTLRGVTVRVGPFVKENNGKFEGFIPDLVQAISEKVGFDYTLYLSPDGRYGNVISDGNVTGMIGEVYNKKADFAAADLTMTEARENYITFTEPFMINQLAALIRREDAEGLNTLEDLAKAQETFPKRKRIVLGTLRNGATNYFLSKSDDPLAKKIYEQIKADDQSVVKSISEGVERVDKQGGYAFIMESASAEHEIANNCKLTMLLDWRNLFPRKYAFALPKDSPYLEHFNNAIKQLNSEGKIAELRRKYWANNCAENKTKDDKN
B3: the “# of individuals of 14 with positive BAT test” value in data set [1] (1 ng/ml) is 1. Also, the “# of individuals of 14 with positive BAT test” value in data set [1] (10 ng/ml) is 1. The “# of individuals of 14 with positive BAT test” value in data set [1] (100 ng/ml) was 1. The “# of individuals of 14 with positive BAT test” value in data set [1] (1000 ng/ml) was found to be 1. In data set [2], the “% responders of in-vitro T cell proliferation test, Allergic” value came to 21% and the “% responders … Non-allergics” value is 0%. In data set [3], the “% HDM allergic individuals with cytokine production in ex-vivo T cell assay IL-5” value was 13%, the “% HDM allergic individuals with cytokine production in ex-vivo T cell assay IL-9” value is given as 13%, the “% HDM allergic individuals with cytokine production in ex-vivo T cell assay IL-10” value came to 6% and the “% HDM allergic individuals with cytokine production in ex-vivo T cell assay IL-13” value worked out at 13%. In data set [3], the “% HDM allergic individuals with cytokine production in ex-vivo T cell assay IL-17” value stood at 0%, the “% HDM allergic individuals with cytokine production in ex-vivo T cell assay IL-31” value was found to be 0%, the “% HDM allergic individuals with cytokine production in ex-vivo T cell assay INF-g” value came to 0% and the “% non-allergic individuals with cytokine production in ex-vivo T cell assay IL-5” value worked out at 0%. Further, in data set [3], the “% non-allergic individuals with cytokine production in ex-vivo T cell assay IL-9” value is recorded as 0%, the “% non-allergic individuals with cytokine production in ex-vivo T cell assay IL-10” value turned out to be 0%, the “% non-allergic individuals with cytokine production in ex-vivo T cell assay IL-13” value came out at 0% and the “% non-allergic individuals with cytokine production in ex-vivo T cell assay IL-17” value was 0%. For the same molecule, in data set [3], the “% non-allergic individuals with cytokine production in ex-vivo T cell assay IL-31” value turned out to be 0% and the “% non-allergic individuals with cytokine production in ex-vivo T cell assay INF-g” value came to 0%.

B4: A022: house dust mite protein; SEQ ID NO: 19 (Der f), 20 (Der p), 317 (Blo t) (protein)
chain: NWQMVWQDEFNGGHLDQNHWEFETGGGGWGNNELEFYTANRSQNVRVENGHLVIDVRVESYGGRDFTSGRIHSKQAWAYGKFEARARLPSGHHLWPAIWMFPRDSKYGPWAASGEIDIMEYRGDVHDKIEGTIHYGGQWPNNIYTGSGPHHFNVDFSKDFHNFAVEWDTKEIRWYMDGNKYFSVNIDRNMWSGKGNNPYNKNGQPFDQPFRWILNVAVGGNFFGPGPYVTPDQARHWQKHTMEIDYVRVYQWR
For B4, the “# of individuals of 14 with positive BAT test” value in data set [1] (1 ng/ml) is on record as 0. Also, the “# of individuals of 14 with positive BAT test” value in data set [1] (10 ng/ml) worked out at 0. The “# of individuals of 14 with positive BAT test” value in data set [1] (100 ng/ml) came to 3. The “# of individuals of 14 with positive BAT test” value in data set [1] (1000 ng/ml) amounted to 5. Further, in data set [2], the “% responders of in-vitro T cell proliferation test, Allergic” value was found to be 29% and the “% responders … Non-allergics” value is on record as 0%. Also, in data set [3], the “% HDM allergic individuals with cytokine production in ex-vivo T cell assay IL-5” value stood at 31%, the “% HDM allergic individuals with cytokine production in ex-vivo T cell assay IL-9” value was found to be 6%, the “% HDM allergic individuals with cytokine production in ex-vivo T cell assay IL-10” value is 6% and the “% HDM allergic individuals with cytokine production in ex-vivo T cell assay IL-13” value was 13%. In addition, in data set [3], the “% HDM allergic individuals with cytokine production in ex-vivo T cell assay IL-17” value came out at 0%, the “% HDM allergic individuals with cytokine production in ex-vivo T cell assay IL-31” value turned out to be 0%, the “% HDM allergic individuals with cytokine production in ex-vivo T cell assay INF-g” value is reported as 0% and the “% non-allergic individuals with cytokine production in ex-vivo T cell assay IL-5” value is recorded as 0%. Further, in data set [3], the “% non-allergic individuals with cytokine production in ex-vivo T cell assay IL-9” value is given as 0%, the “% non-allergic individuals with cytokine production in ex-vivo T cell assay IL-10” value came out at 0%, the “% non-allergic individuals with cytokine production in ex-vivo T cell assay IL-13” value is 0% and the “% non-allergic individuals with cytokine production in ex-vivo T cell assay IL-17” value was 0%. Besides, in data set [3], the “% non-allergic individuals with cytokine production in ex-vivo T cell assay IL-31” value was determined as 0% and the “% non-allergic individuals with cytokine production in ex-vivo T cell assay INF-g” value came out at 17%.

The values are drawn from US10556936B2, “Immunogenic proteins and fragments thereof from allergenic mites” (ALK-ABELLÓ A/S, priority 2016, dated 2020).
